Consider 15 molecules from US20070071745A1 (Hoffmann-La Roche, published 2007).

The target of assay [1] is T1, human CD20 (human, UniProt P11836 1-297).
T1 construct: whole, on cells; also called human CD20 antigen; target antigen (CD20)
T1 sequence (looked up): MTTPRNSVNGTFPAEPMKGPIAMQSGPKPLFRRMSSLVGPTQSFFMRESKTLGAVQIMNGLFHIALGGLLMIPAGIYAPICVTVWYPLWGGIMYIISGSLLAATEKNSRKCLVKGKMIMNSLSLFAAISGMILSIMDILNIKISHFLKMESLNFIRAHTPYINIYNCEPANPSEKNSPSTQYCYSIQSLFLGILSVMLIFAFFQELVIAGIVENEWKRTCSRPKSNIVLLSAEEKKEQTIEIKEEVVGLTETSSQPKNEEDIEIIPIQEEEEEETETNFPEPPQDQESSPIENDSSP
Briefly: flow cytometry on Raji B-cell lymphoma cells (FIG. 11). For orientation: Flow cytometry measures light scatter and fluorescence of single cells or particles in a stream.
Description: (§1) 200,000 cells in 180 μl FACS buffer (PBS containing 2% FCS and 5 mM EDTA) were transferred to 5 ml polystyrene tubes. Next, 20 μl of 10-fold concentrated anti-CD20 antibody samples (1-5000 ng/ml final concentration) or PBS only were added, and the tubes were incubated at 4° C. for 30 min. Subsequently, samples were washed twice with FACS buffer and pelleted at 300×g for 3 min. Supernatant was aspirated off and cells were taken up in 100 μl FACS buffer. Next, 1 μl anti-Fc-specific F(ab′)2-FITC fragments (Jackson Immuno Research Laboratories, USA) was added and the tubes were incubated at 4° C. for 30 min. Samples were washed twice with FACS buffer and taken up in 500 μl of FACS buffer containing 0.5 μg/ml PI for analysis by Flow Cytometry. Binding was determined by plotting the geometric mean fluorescence against the antibody concentrations.

For assay [2], the target named is T1, human CD20. Briefly: flow cytometry on Raji B-cell lymphoma cells (FIG. 2).
Description: as §1
In assay [3] the target is T1, human CD20. Briefly: flow cytometry on Raji B-cell lymphoma cells (FIGS. 2, 9 to 13).
Description: as §1
Assay [4] addresses T1, human CD20. Briefly: flow cytometry on Raji B-cell lymphoma cells (FIG. 22).
Description: as §1
In assay [5] the target is T1, human CD20. Briefly: flow cytometry on Raji B-cell lymphoma cells (methods described above).
Description: as §1
Assay [6] deals with T1, human CD20. Briefly: flow cytometry on Raji B-cell lymphoma cells (FIGS. 2, 9 to 13); the same paragraph adds that the binding of B-HL11 to B-HL17 does not differ drastically in EC50 and stoichiometry.
Description: as §1

B1: B-HH1 paired with the BKV1 humanized B-ly1 light chain (antibody, human IgG1, V domains shown)
VH: QVQLVQSGAEVKKPGSSVKVSCKASGYTFSYSWMSWVRQAPGQGLEWMGRIFPGDGDTDYAQKFQGRVTITADKSTSTAYMELSSLRSEDTAVYYCARNVFDGYWLVYWGQGTLVTVSS
VL: DIVMTQTPLSLPVTPGEPASISCRSSKSLLHSNGITYLYWYLQKPGQSPQLLIYQMSNLVSGVPDRFSGSGSGTDFTLKISRVEAEDVGVYYCAQNLELPYTFGGGTKVEIKR
notes: also called BHH1-BKV1
Turning to B1, in the assay with human CD20 [1], the binding result is on record as “binds”.

B2: B-HL12 (G9A, V48M) paired with the BKV1 light chain (antibody, human IgG1, V domains shown)
VH: EVQLVESGAGLVKPGGSLRLSCAASGFTFSYSWMNWVRQAPGKGLEWMGRIFPGDGDTDYNGKFKGRVTITADKSTSTAYMELSSLRSEDTAVYYCARNVFDGYWLVYWGQGTLVTVSS
VL: DIVMTQTPLSLPVTPGEPASISCRSSKSLLHSNGITYLYWYLQKPGQSPQLLIYQMSNLVSGVPDRFSGSGSGTDFTLKISRVEAEDVGVYYCAQNLELPYTFGGGTKVEIKR
Consider B2, for which the binding result with human CD20 [2] is “binds”.

B3: BHH2-BKV1 humanized IgG1 B-ly1 anti-human CD20 antibody (antibody, V domains shown)
VH: QVQLVQSGAEVKKPGSSVKVSCKASGYAFSYSWMNWVRQAPGQGLEWMGRIFPGDGDTDYNGKFKGRVTITADKSTSTAYMELSSLRSEDTAVYYCARNVFDGYWLVYWGQGTLVTVSS
VL: DIVMTQTPLSLPVTPGEPASISCRSSKSLLHSNGITYLYWYLQKPGQSPQLLIYQMSNLVSGVPDRFSGSGSGTDFTLKISRVEAEDVGVYYCAQNLELPYTFGGGTKVEIKR
notes: Non-glycoengineered form; also called BHH2-BKV1-wt; humanized B-ly1
Consider B3, for which the binding result with human CD20 [3] is recorded as “binds”.

B4: B-HH8 with the BKV1 light chain (antibody, human IgG1, V domains shown)
VH: QVQLVQSGAEVKKPGASVKVSCKASGYTFTYSWMNWVRQAPGQGLEWMGRIFPGDGDTDYNGKFKGRVTITADKSTSTAYMELSSLRSEDTAVYYCARNVFDGYWLVYWGQGTLVTVSS
VL: DIVMTQTPLSLPVTPGEPASISCRSSKSLLHSNGITYLYWYLQKPGQSPQLLIYQMSNLVSGVPDRFSGSGSGTDFTLKISRVEAEDVGVYYCAQNLELPYTFGGGTKVEIKR
B4: the binding result with human CD20 [4] is reported as “binds”.

B5: B-HH3 paired with the BKV1 humanized B-ly1 light chain (antibody, human IgG1, V domains shown)
VH: QVQLVQSGAEVKKPGSSVKVSCKASGYAFSYSWMNWVRQAPGQGLEWMGRIFPGDGDTDYNGKFKGRVTITADKSTSTAYMELSSLRSEDTAVYLCARNVFDGYWLVYWGQGTLVTVSS
VL: DIVMTQTPLSLPVTPGEPASISCRSSKSLLHSNGITYLYWYLQKPGQSPQLLIYQMSNLVSGVPDRFSGSGSGTDFTLKISRVEAEDVGVYYCAQNLELPYTFGGGTKVEIKR
notes: also called BHH3-BKV1
For B5, the binding result with human CD20 [1] is “binds”.

B6: BHH2-B (K12V) paired with a BKV1 light chain (antibody, human IgG1, V domains shown)
VH: QVQLVQSGAEVVKPGSSVKVSCKASGYAFSYSWMNWVRQAPGQGLEWMGRIFPGDGDTDYNGKFKGRVTITADKSTSTAYMELSSLRSEDTAVYYCARNVFDGYWLVYWGQGTLVTVSS
VL: DIVMTQTPLSLPVTPGEPASISCRSSKSLLHSNGITYLYWYLQKPGQSPQLLIYQMSNLVSGVPDRFSGSGSGTDFTLKISRVEAEDVGVYYCAQNLELPYTFGGGTKVEIKR
Consider B6, for which, in the assay with human CD20 [5], the binding result is “binds”.

B7: BHL17-BKV1 (antibody, human IgG1, V domains shown)
VH: EVQLVESGGGLVKPGGSLRLSCAASGFTFSYSWMNWVRQAPGKGLEWMGRIFPGDGDTDYNGKFKGRVTITADKSTSTAYMELSSLRSEDTAVYYCARNVFDGYWLVYWGQGTLVTVSS
VL: DIVMTQTPLSLPVTPGEPASISCRSSKSLLHSNGITYLYWYLQKPGQSPQLLIYQMSNLVSGVPDRFSGSGSGTDFTLKISRVEAEDVGVYYCAQNLELPYTFGGGTKVEIKR
notes: also called BHL17-BKV1 W1; B-HL17 (V48M)
As for B7, in the assay with human CD20 [2], the binding result is reported as “binds”.

B8: BHL14-BKV1 (antibody, human IgG1, V domains shown)
VH: EVQLVESGGGLKKPGGSLRLSCAASGFTFSYSWMNWVRQAPGKGLEWMGRIFPGDGDTDYNGKFKGRVTITADKSTSTAYMELSSLRSEDTAVYYCARNVFDGYWLVYWGQGTLVTVSS
VL: DIVMTQTPLSLPVTPGEPASISCRSSKSLLHSNGITYLYWYLQKPGQSPQLLIYQMSNLVSGVPDRFSGSGSGTDFTLKISRVEAEDVGVYYCAQNLELPYTFGGGTKVEIKR
notes: also called B-HL14 (V12K, V48M)
Regarding B8, the binding result in the assay with human CD20 [2] is given as “binds”.

B9: BHL8-BKV1 (antibody, human IgG1, V domains shown)
VH: EVQLVESGGGLVKPGGSLRLSCAASGFTFSYSWMNWVRQAPGKGLEWVGRIFPGDGDTDYNGKFKGRVTITADKSTSTAYMELSSLRSEDTAVYYCARNVFDGYWLVYWGQGTLVTVSS
VL: DIVMTQTPLSLPVTPGEPASISCRSSKSLLHSNGITYLYWYLQKPGQSPQLLIYQMSNLVSGVPDRFSGSGSGTDFTLKISRVEAEDVGVYYCAQNLELPYTFGGGTKVEIKR
notes: also called BHL8-BKV1 wt
B9: the binding result in the assay with human CD20 [3] was “binds”.

B10: BHH2-A (V11L) paired with a BKV1 light chain (antibody, human IgG1, V domains shown)
VH: QVQLVQSGAELKKPGSSVKVSCKASGYAFSYSWMNWVRQAPGQGLEWMGRIFPGDGDTDYNGKFKGRVTITADKSTSTAYMELSSLRSEDTAVYYCARNVFDGYWLVYWGQGTLVTVSS
VL: DIVMTQTPLSLPVTPGEPASISCRSSKSLLHSNGITYLYWYLQKPGQSPQLLIYQMSNLVSGVPDRFSGSGSGTDFTLKISRVEAEDVGVYYCAQNLELPYTFGGGTKVEIKR
On to B10, for which the binding result with human CD20 [5] is “binds”.

B11: BHL15-BKV1 (antibody, human IgG1, V domains shown)
VH: EVQLVESGGGLVKPGSSLRLSCAASGFTFSYSWMNWVRQAPGKGLEWMGRIFPGDGDTDYNGKFKGRVTITADKSTSTAYMELSSLRSEDTAVYYCARNVFDGYWLVYWGQGTLVTVSS
VL: DIVMTQTPLSLPVTPGEPASISCRSSKSLLHSNGITYLYWYLQKPGQSPQLLIYQMSNLVSGVPDRFSGSGSGTDFTLKISRVEAEDVGVYYCAQNLELPYTFGGGTKVEIKR
notes: also called BHL15-BKV1 W1; B-HL15 (G16S, V48M)
As to B11, the binding result with human CD20 [2] is on record as “binds”.

B12: B-HH9 with the BKV1 light chain (antibody, human IgG1, V domains shown)
VH: QVQLVQSGAEVKKPGASVKVSCKASGYTFSYSWMNWVRQAPGQGLEWMGRIFPGDGDTDYNGKFKGRVTITADKSTSTAYMELSSLRSEDTAVYYCARNVFDGYWLVYWGQGTLVTVSS
VL: DIVMTQTPLSLPVTPGEPASISCRSSKSLLHSNGITYLYWYLQKPGQSPQLLIYQMSNLVSGVPDRFSGSGSGTDFTLKISRVEAEDVGVYYCAQNLELPYTFGGGTKVEIKR
Turning to B12, the binding result in the assay with human CD20 [4] is on record as “binds”.

B13: BHL11-BKV1 (antibody, human IgG1, V domains shown)
VH: QVQLVESGGGLVKPGGSLRLSCAASGFTFSYSWMNWVRQAPGKGLEWVGRIFPGDGDTDYNGKFKGRVTITADKSTSTAYMELSSLRSEDTAVYYCARNVFDGYWLVYWGQGTLVTVSS
VL: DIVMTQTPLSLPVTPGEPASISCRSSKSLLHSNGITYLYWYLQKPGQSPQLLIYQMSNLVSGVPDRFSGSGSGTDFTLKISRVEAEDVGVYYCAQNLELPYTFGGGTKVEIKR
notes: also called B-HL11 (having the mutation E1Q)
Take B13: the binding result with human CD20 [6] was “binds”.

B14: BHL16-BKV1 (antibody, human IgG1, V domains shown)
VH: EVQLVESGGGLVKPGGSLRVSCAASGFTFSYSWMNWVRQAPGKGLEWMGRIFPGDGDTDYNGKFKGRVTITADKSTSTAYMELSSLRSEDTAVYYCARNVFDGYWLVYWGQGTLVTVSS
VL: DIVMTQTPLSLPVTPGEPASISCRSSKSLLHSNGITYLYWYLQKPGQSPQLLIYQMSNLVSGVPDRFSGSGSGTDFTLKISRVEAEDVGVYYCAQNLELPYTFGGGTKVEIKR
notes: also called BHL16-BKV1 W1; B-HL16 (L20V, V48M)
Take B14: in the assay with human CD20 [2], the binding result is on record as “binds”.

B15: BHL13-BKV1 (antibody, human IgG1, V domains shown)
VH: EVQLVESGGGVVKPGGSLRLSCAASGFTFSYSWMNWVRQAPGKGLEWMGRIFPGDGDTDYNGKFKGRVTITADKSTSTAYMELSSLRSEDTAVYYCARNVFDGYWLVYWGQGTLVTVSS
VL: DIVMTQTPLSLPVTPGEPASISCRSSKSLLHSNGITYLYWYLQKPGQSPQLLIYQMSNLVSGVPDRFSGSGSGTDFTLKISRVEAEDVGVYYCAQNLELPYTFGGGTKVEIKR
notes: also called B-HL13 (L11V, V48M)
Consider B15, for which the binding result with human CD20 [2] is listed as “binds”.
